Measurements published in a protein production outcome set (Wang et al. 2014).

Assay: label from the status in PepcDB records

| Sequence | protein production |
| --- | --- |
| MKDFFPLQQGGLVLEWVNTETKLRQLWAFRHRIFREQLQWVPLCEDGFDRDAYDDFSDNLVLCRDGEVVGAIRLTTGEHPFMLEEEFSRLLAPGERIGKGAEYSEITRLAVDREALGARESIMAARLLYLGAWLWSQVQGVRWMYFVVEPVFYRRLVMMGFPIVPVGIPRPLDGGVMSMTGLLDWRQAKTELIRSLTRGVSSPSACQALWHEYDYSH | failed |
| MKDFIRYTKKRNLSLNTIRTYESVLKHYEPVLDSWIKIRNKIINSNFKPRTIHLHKNVLLSFFEFKKLKRYLQNLKLLKLPQIEMKYFDVISKNNLYKKTDILDDDSLEIKKYKTIIRFLFETGIRAHELFFLESINNRLYVLGKGNKKRQIFFVKQTFEQLQKFYENLKGFETTKTLRLYIKKIIGKNFTPHSLRRSFATFMLIKGANPKTVMLQMGHANIQTTFSYLNLNEQTNRRIYNKIMYQNDAE | failed |
| MKDLKDSLKILYQFKTDYLKVTLLLTILQAFVIGPFIYYFFFFILRVIGVPGITDANLGEVFSSPVAVIMLLILALLILLFVYYELGFFIMMAIYQLRGESYTVFKIIQRLNVKAKYFLSYQAIYFLLYFFLLLPIAGLSLPITITENLYLPHFITDELMKTTTGTWLYVIAIAIIFYISARLVFALPYFIEDKSLKISGAIRKSWKFSQKHLFFMLLKWVLIIVVIGFLVSIIATIIMLPLLLVEKITPGIAVVIAGITLTILQVIGFFAAGIFQGIIAQLLVKNAFAIEGQHAPVARNQFPHKKRFIIVAIIVFIIFSGFNIFTVNATLYEPNTKIIAHRGDTMNAVENTVEAIESAAKSGADYSEIDIQETKDHQFVVFHDMTLRRLAGSSKRVADMTLKELQQTKVKSGDYSSHIASFDEIIKTAKKNKIDLLVEVKLHGGESSDMVERLVTLLKKEKVTDKYLVQSLNQPVIEEIEKADPSLKTGIILALNIGNLPKTSADFIVLEDFSINKRLLTQAKQNDKMVFVWTVNKEKLMQMYLRKNVDGIITNYPKKAIELRESFNENDSLRSRIENRLGF | failed |
| MKDLLKWKFVETLDFLFDMDKYGRQMLFLQERGRMKLMEGFAVEFRGDGWDNDLASYCGKIVECSWDKEKKVWVSLRIRVDKSKPNGIGTGRSVIKCIEDDLTKEVLLKEIKEIILLP | not failed |
| MKDLYQKFIYLIPSIIIFLITLSVTLKYSWPIGWDIFYHIHLSKVYMANGLTFFDPIYNAPGTIINYPPVFHLVILVLGYVLRMDLFDVARLMQPFLAALVALSVTVVASRLYEDKYVGIFAGLILFSGSIAMRLGSSLPENMALIFLPLSIFFFYEFFKDDKIIASFISGCLTGLVALIHPAATFCLVFAITFITAGLVITEFYFERDTGVIKRALKGYAILIGTAGLIASVWWLPAFYFKSLGHGGVATSLSVSRSLSILKYPDALGYFVLVLAVAGIIPAIRRFELRDRLILLWIISMFILSKSYYFGINVITYRVLIYIMIPLTILASSGLISVVEAIKNKNKDIARILLIALFIFAVFQAFNNLSSSKVADYGAMTAYGRINIAPPTDSEFELAKWFNSQNEDGKISLSNYFTGGFVMAYTNRPVDSLLYEKSEIPSRDELTEREISYLVFDKRLKASGDFKFNASSSFLFYNPNRINISDLEYPYLQKIYENQDFVVYRVL | failed |
| MKDTLKIGLLGLGTVGTGVLTLLKEHQEKISQVTGMNVVIEKAFVRNLETKQAQAEEYGLSLTTSIDDILEDKEIQIVVELMGTIEPAKTYIMKALEKGKHIVTANKDLLAQHGSELVALAQKHHCDLYYEASVAGGIPILRTIANSLAADNIQQVLGIVNGTTNYMLTQMVSADKSYEEALAEAQALGFAEADPTNDVDGIDAAYKMVILSQFAFGMNVSLPQVDIRGIRGLSLDDVAMAKQLGYEIKLIGSAEQNENSISVEVAPMLVNQKHPIASVRNEYNAVFIKSAGVGESMYYGPGAGAKPTATSVVSDLITIAKNIRLATTGHMFNSYQHKTQLTSSENVFGQYYFSLDVPDTPGQFLQLTQLMTKAEVSFDQLVQQKSDGQRARIVAITHQISKAQMQQVVIAIQNTEAFQLLNVMKVIGDE | failed |
| MKEARKRMVKRAVQEIKDGMNVNLGIGMPTLVANEIPDGVHVMLQSENGLLGIGPYPLEGTEDADLINAGKETITEVTGASYFDSAESFAMIRGGHIDLAILGGMEVSEQGDLANWMIPGKMVKGMGGAMDLVNGAKRIVVIMEHVNKHGESKVKKTCSLPLTGQKVVHRLITDLAVFDFVNGRMTLTELQDGVTIEEVYEKTEADFAVSQSVLNS | not failed |
| MKEEAVRVIEEVLKQGRTAMVEYEAKQVLKAYGLPVPEEKLAKTLDEALEYAKEIGYPVVLKLMSPQILHKSDAKVVMLNIKNEEELKKKWEEIHENAKKYRPDAEILGVLVAPMLKPGREVIIGVTEDPQFGHAIMFGLGGIFVEILKDVTFRLVPITEKDARKMIQEIKAYPILAGARGEEPADIDAIVDMLLKVSKLVDDLKDYIKEMDLNPVFVYNKGEGAVIVDSRIILKPKD | not failed |
| MKEGTGMVVRSSEITPERISNMRGGKGEVEMAHLLSKEAMHNKARLFARMKLPPGSSVGLHKHEGEFEIYYILLGEGVFHDNGKDVPIKAGDVCFTDSGESHSIENTGNTDLEFLAVIILL | not failed |
| MKEIVERVKTKTKIPVYERSVENVLSAVLASDDIWRIVDLSEEPLPLVVAILESLNELGYVTFEDGVKLTEKGEELVAEYGIGKRYDFTCPHCQGKTVDLQAFADLLEQFREIVKDRPEPLHEFDQAYVTPETTVARVILMHTRGDLENKDIFVLGDDDLTSIALMLSGLPKRIAVLDIDERLTKFIEKAANEIGYEDIEIFTFDLRKPLPDYALHKFDTFITDPPETLEAIRAFVGRGIATLKGPRCAGYFGITRRESSLDKWREIQKLLLNEFNVVITDIIRNFNEYVNWGYAEETRAWKLIPIKKLPEYNWYKSYMFRIETLEGSRGYEDEIPEEDIYNDEESST | not failed |
| MKEKEYLFSLDMKVRDYECDLQGVVNNSNYQRYMEHTRHEFWESLGDNFGQMHEKGLDAFVYKVTITFKQSLRSGDRFRSCLTCHKKGPKLIFMQDIIREDGVMAARGEVEVVAVQDGVLTRGEYFDVLMKDILSKTTKLEHHHHHH | not failed |
| MKELNIALLGLGTVGSGVVKIIEENRQQIKDTINKDIVIKHILVRDKSKKRPLNISQYHLTEDINDILNDNSIDIVVEVMGGIEPTVDWLRTALKNKKHVITANKDLLAIHLKLLEDLAEENGVALKFEASVAGGIPIVNAINNGLNANNISKFMGIFNGTSNFILSKMTHEQTTFKDALEEAQRLGFAEADPTDDVEGVDAARKVVITSYLSFNQVIKLNDVKSVGISDITLADINAANSLNYKIKLIGKGTYENGYVNASVEPTLIHKNHQLAAVENEYNAIYVIGDAVGDTMFYGKGAGSLATGSAVVSDLLNVALFFESNLHTLPPHFELKTEETKEMMDGAEPVVIQEKSNYYIVISNNNKSLEKVEYDIKKKLPFHKSLQLVERDQDTYAIIVTGIETSPEKVLNQSGFNIKKVYPVEGV | failed |
| MKELPRGDLLSPKTEEKFKLTNKAKIFFRPYMDPPEMPSSEYPLWLCTGRVLEHWHSGTMTMRVPELYRAVPEALCYMHPEDAKKLGVKQNEAVWVESRRGKVKARLEHHHHHH | not failed |
| MKELSLFLQNRSVRRVGVFILIAFVLYLLRSQMNIILLTFIFSYLITRLENFILRRISIYRQIIVLLLYVLIAAVIIFVFVKYIPVLADQINQLVKFGNTFLTTDSNNDFINYIVSLANQFDIMKYTEQGVSMILTYLTNVGTVLMNVFIALMLSLFFSLGKEHLVSFTNQFSTSKIGFIYEEVKFFGSKFVATFGKVIEAQFIIALVNAILTTIALWILGFPQLMTLSIMVFLLGLIPVAGVIISLVPLTIIGYSIGGVEYIFYILVVVIIIHALESYVLNPKLMSAKTNLPVFYTFIILIFGEHFFGIWGLIVGIPVVMFFLDVLGVTNQEEIEQPKDTISHT | failed |
| MKENLQDRLERENLKIASFGKRVLAFLIDDMVISLIVFIIFYDRLIQAKDLFETTQIVGNFYLGFILLHFSYQAIFTYLYGASLGKILCKIIILDENLLDKPNLIQSCIRSAVRQVSAMAFMLGFAWALSNDLRKAWEDYLARTIVVDVA | failed |
